Biological target: SARS-CoV-2 spike RBD (called RBD S glycoprotein) (SARS-CoV-2 (2019-nCoV), UniProt P0DTC2 319-541)
Assay: direct ELONA
Conditions: protein: commercial; label: 5'-biotin

B1: CoV2-RBD-1C (ssDNA)
DNA: CAGCACCGACCTTGTGCTTTGGGAGTGCTGGTCCAAGGGCGTTAATGGACA
binding result: binds

From paper PMC9559407, “Enzyme linked oligonucleotide assay for the sensitive detection of SARS-CoV-2 variants”
